Substrate in this data set: CC(=O)N[C@H]1[C@H]([C@H](O)[C@H](O)CO)O[C@](OP(=O)(O)OC[C@H]2O[C@@H](n3ccc(N)nc3=O)[C@H](O)[C@@H]2O)(C(=O)O)C[C@@H]1O
Description: sialyltransferase kinetics, donor varied. In kind it is biochemical, Homo sapiens. The conditions noted are these: acceptor LacNAc-butyl (11), fixed concentration.

The record followed here is PMC6450558.

B1: human ST3Gal-IV (Homo sapiens) (protein)
chain: MVSKSRWKLLAMLALVLVVMVWYSISREDRYIELFYFPIPEKKEPCLQGEAESKASKLFGNYSRDQPIFLRLEDYFWVKTPSAYELPYGTKGSEDLLLRVLAITSSSIPKNIQSLRCRRCVVVGNGHRLRNSSLGDAINKYDVVIRLNNAPVAGYEGDVGSKTTMRLFYPESAHFDPKVENNPDTLLVLVAFKAMDFHWIETILSDKKRVRKGFWKQPPLIWDVNPKQIRILNPFFMEIAADKLLSLPMQQPRKIKQKPTTGLLAITLALHLCDLVHIAGFGYPDAYNKKQTIHYYEQITLKSMAGSGHNVSQEALAIKRMLEMGAIKNLTSF
In the case of B1, the Km (commonly the concentration of substrate that gives half-maximal velocity) is 300 ± 66 µM; the kcat (commonly the number of substrate molecules converted per active site and unit of time at saturation) was 0.0233 ± 0.00167 s⁻¹; the kcat/Km (usually the turnover number divided by the Michaelis constant) came out at 78.3 ± 25 M⁻¹ s⁻¹.

B2: human ST6Gal-I (Homo sapiens) (protein)
chain: MIHTNLKKKFSCCVLVFLLFAVICVWKEKKKGSYYDSFKLQTKEFQVLKSLGKLAMGSDSQSVSSSSTQDPHRGRQTLGSLRGLAKAKPEASFQVWNKDSSSKNLIPRLQKIWKNYLSMNKYKVSYKGPGPGIKFSAEALRCHLRDHVNVSMVEVTDFPFNTSEWEGYLPKESIRTKAGPWGRCAVVSSAGSLKSSQLGREIDDHDAVLRFNGAPTANFQQDVGTKTTIRLMNSQLVTTEKRFLKDSLYNEGILIVWDPSVYHSDIPKWYQNPDYNFFNNYKTYRKLHPNQPFYILKPQMPWELWDILQEISPEEIQPNPPSSGMLGIIIMMTLCDQVDIYEFLPSKRKTDVCYYYQKFFDSACTMGAYHPLLYEKNLVKHLNQGTDEDIYLLGKATLPGFRTIHC
Consider B2, for which the Km worked out at 119 ± 16 µM, the kcat was determined as 0.183 ± 0.00667 s⁻¹ and the catalytic efficiency (kcat/Km) turned out to be 1530 ± 417 M⁻¹ s⁻¹.
